Our source for the Km and Vmax values is US11346848B2, “Γ-secretase stabilizing compound screening assay” (VIB VZW, priority 2017, dated 2022).

What is called Km is the concentration of substrate that gives half-maximal velocity. Usually Vmax stands for the rate approached at saturating substrate.

The test system of one data set is γ-secretase. Particulars: Chávez-Gutiérrez et al., 2012; Funamoto et al., 2013; read-out: Km (substrate affinity constant); cited from earlier work.
Data set [1] deals with CC[C@H](C)[C@H](NC(=O)[C@@H](NC(=O)[C@@H](NC(=O)[C@H](C)NC(=O)[C@@H](NC(=O)[C@@H](NC(=O)[C@@H](NC(=O)CNC(=O)CNC(=O)[C@@H](NC(=O)[C@H](CCSC)NC(=O)[C@H](CC(C)C)NC(=O)CNC(=O)[C@@H](NC(=O)[C@@H](NC(=O)[C@H](C)NC(=O)CNC(=O)[C@H](CCCCN)NC(=O)[C@H](CC(N)=O)NC(=O)[C@H](CO)NC(=O)CNC(=O)[C@@H](NC(=O)[C@H](CC(=O)O)NC(=O)[C@H](CCC(=O)O)NC(=O)[C@H](C)NC(=O)[C@H](Cc1ccccc1)NC(=O)[C@H](Cc1ccccc1)NC(=O)[C@@H](NC(=O)[C@H](CC(C)C)NC(=O)[C@H](CCCCN)NC(=O)[C@H](CCC(N)=O)NC(=O)[C@H](Cc1c[nH]cn1)NC(=O)[C@H](Cc1c[nH]cn1)NC(=O)[C@@H](NC(=O)[C@H](CCC(=O)O)NC(=O)[C@H](Cc1ccc(O)cc1)NC(=O)CNC(=O)[C@H](CO)NC(=O)[C@H](CC(=O)O)NC(=O)[C@H](Cc1c[nH]cn1)NC(=O)[C@H](CCCNC(=N)N)NC(=O)[C@H](Cc1ccccc1)NC(=O)[C@H](CCC(=O)O)NC(=O)[C@H](C)NC(=O)[C@@H](N)CC(=O)O)C(C)C)C(C)C)C(C)C)[C@@H](C)CC)[C@@H](C)CC)C(C)C)C(C)C)C(C)C)[C@@H](C)CC)[C@@H](C)O)C(C)C)C(=O)O. Put plainly: purified protein, by the assay type.

For data set [2], the system named is CC[C@H](C)[C@H](NC(=O)[C@H](C)NC(=O)CNC(=O)[C@H](CCCCN)NC(=O)[C@H](CC(N)=O)NC(=O)[C@H](CO)NC(=O)CNC(=O)[C@@H](NC(=O)[C@H](CC(=O)O)NC(=O)[C@H](CCC(=O)O)NC(=O)[C@H](C)NC(=O)[C@H](Cc1ccccc1)NC(=O)[C@H](Cc1ccccc1)NC(=O)[C@@H](NC(=O)[C@H](CC(C)C)NC(=O)[C@H](CCCCN)NC(=O)[C@H](CCC(N)=O)NC(=O)[C@H](Cc1c[nH]cn1)NC(=O)[C@H](Cc1c[nH]cn1)NC(=O)[C@@H](NC(=O)[C@H](CCC(=O)O)NC(=O)[C@H](Cc1ccc(O)cc1)NC(=O)CNC(=O)[C@H](CO)NC(=O)[C@H](CC(=O)O)NC(=O)[C@H](Cc1c[nH]cn1)NC(=O)[C@H](CCCNC(=N)N)NC(=O)[C@H](Cc1ccccc1)NC(=O)[C@H](CCC(=O)O)NC(=O)[C@H](C)NC(=O)[C@@H](N)CC(=O)O)C(C)C)C(C)C)C(C)C)C(=O)N[C@H](C(=O)NCC(=O)N[C@@H](CC(C)C)C(=O)N[C@@H](CCSC)C(=O)N[C@H](C(=O)NCC(=O)NCC(=O)N[C@H](C(=O)N[C@H](C(=O)N[C@H](C(=O)N[C@@H](C)C(=O)N[C@H](C(=O)N[C@H](C(=O)N[C@H](C(=O)N[C@H](C(=O)O)C(C)C)[C@@H](C)CC)C(C)C)[C@@H](C)O)[C@@H](C)CC)C(C)C)C(C)C)C(C)C)[C@@H](C)CC. Put plainly: purified protein, by the assay type.

Turning to “APP-C99: human Amyloid beta precursor protein C99 fragment (99 aa), natural γ-secretase substrate”, the Km with γ-secretase is 0.4 to 0.8 µM.

For the substance “wild type human γ-secretase (PSEN1/APH1a) (Homo sapiens)”, the Km was 2.9 µM in data set [1] (other: 37° C., 37.0 °C); 1.7 µM in data set [1] (other: 45° C., […]); 1.4 µM in data set [1] (other: 51° C., […]); 3 µM in data set [1] (other: summary of Table 2); 3.3 µM in data set [2] (other: 37° C., 37.0 °C); 2.3 µM in data set [2] (other: 51° C., […]). The Km in data set [2] (other: summary of Table 2) was 3 µM. In addition, the Vmax is on record as 545.2 nM/h in data set [1] (other: 37° C., 37.0 °C); 274.3 nM/h in data set [1] (other: 45° C., […]); 97.45 nM/h in data set [1] (other: 51° C., […]); 606.3 nM/h in data set [2] (other: 37° C., 37.0 °C); 348.8 nM/h in data set [2] (other: 51° C., […]).
